Results taken from patent US20170002083A1 (KYMAB, published 2017).

Tests used:
[1] = target: T1, Recombinant Rhesus OX40L (Leader Sequence, FLAG and Isoleucine zipper included) (Rhesus (Macaca mulatta)); test: SPR (ProteOn XPR36), rhesus OX40L at 256 nM, apparent affinity; CNROR = Cannot resolve off-rate
T1 construct: also called RhsOX40L; Rhesus monkey OX40L

[2] = target: T2, Recombinant Human OX40L (Leader sequence, Isoleucine Zipper and FLAG Sequence Included) (human); test: HTRF ligand/receptor neutralisation, biotinylated hOX40L, competitor OX40RFc-AF647; mean of three experiments, SEM +/-0.17
T2 construct: also called hOX40L; recombinant hOX40L
T2 sequence (chain, as listed by the source limits assumed): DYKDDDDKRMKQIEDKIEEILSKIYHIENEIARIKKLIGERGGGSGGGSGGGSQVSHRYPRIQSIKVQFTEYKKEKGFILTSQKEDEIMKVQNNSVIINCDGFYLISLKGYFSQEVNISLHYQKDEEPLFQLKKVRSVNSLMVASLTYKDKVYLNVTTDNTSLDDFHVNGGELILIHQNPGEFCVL
Procedure: (§1) In order to determine whether recombinantly expressed fully human purified IgG inhibit human OX40L binding to OX40RFc the following method was carried out. Fully human purified IgG or other inhibitor were tested in order to establish the clone potency as measured by IC₅₀ values in the assay. Antibodies recombinantly expressed and purified were titrated by diluting in HTRF assay buffer and 5 μL of this titration transferred to a white 384 well low volume non-binding surface polystyrene plate (Greiner). Biotinylated OX40L was diluted in HTRF assay buffer to a working concentration of 2.4 nM and 5 μL added. OX40RFc directly labelled with AF647 was then diluted to working concentration of 10 nM and 5 μL added. Non-specific binding was defined by replacing OX40RFc-AF647 with assay buffer or HMM. […] Plates were covered, protected from light and incubated at room temperature for 3 hrs prior to reading time resolved fluorescence at 620 nm and 665 nm emission wavelengths using an EnVision plate reader (Perkin Elmer). Data were analysed by calculating delta F as described in Equation 4 and percentage of receptor for each sample according to Equation 5 or in some cases Equation 6. IC₅₀ values were determined using GraphPad Prism software by curve fitting using a four-parameter logistic equation (Equation 7) (FIG. 1).

[3] = target: T2, Recombinant Human OX40L (Leader …); test: HTRF ligand/receptor neutralisation: biotinylated hOX40L with OX40RFc-AF647, antibody titrated; readout is % of receptor binding
Procedure: as §1

[4] = target: T2, Recombinant Human OX40L (Leader …); test: HTRF ligand/receptor neutralisation, biotinylated hOX40L, competitor OX40RFc-AF647; mean of three experiments, SEM +/-0.04
Procedure: as §1

[5] = target: T1, Recombinant Rhesus OX40L (Leader …); test: SPR (ProteOn XPR36), antibody captured, rhesus OX40L at 256 nM, apparent affinity; CNROR = Cannot resolve off-rate
Procedure: (§2) SPR analysis was carried out using the ProteOn™ XPR36 Array System (BioRad). Anti-mouse IgG (GE Healthcare BR-1008-38) was immobilised on a GLM biosensor surface using amine coupling, the surface was then blocked using 1 M ethanolamine. Test antibodies were captured on this surface and recombinant hOX40L (human and rhesus) were used at a single concentration of 256 nM, binding sensorgrams were double referenced using a buffer injection (i.e. 0 nM) to remove baseline drift and injection artefacts. Apparent affinities for the OX40L-antibody interaction were determined using the 1:1 model inherent to the ProteOn XPR36 analysis software. The assay was run using HBS-EP (Teknova) as running buffer and carried out at 25° C.

[6] = target: T2, Recombinant Human OX40L (Leader …); test: SPR (ProteOn XPR36), antibody captured on anti-mouse IgG, hOX40L at a single concentration of 256 nM, 1:1 model, apparent affinity, 25 C
Procedure: as §2

T1 sequence (chain, as listed by the source limits assumed): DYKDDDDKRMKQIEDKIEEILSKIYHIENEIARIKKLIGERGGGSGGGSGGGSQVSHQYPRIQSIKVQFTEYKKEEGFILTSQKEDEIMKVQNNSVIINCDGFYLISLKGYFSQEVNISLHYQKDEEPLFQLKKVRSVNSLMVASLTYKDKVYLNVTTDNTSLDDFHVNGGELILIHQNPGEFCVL

Row | Binder | binding result [1] | IC50 (read off the curve) [3] | binding result [5] | Kd [6] | further results
1 | 10A07 (human) (antibody, human IgG4 S228P, kappa, V domains shown, also called 10A7; 10A07 IgG4PE) VH: EVQLVESGGVLVQPGGSLRLSCAASGFTFSSYIMTWVRQAPGKGLEWVSGISGSGGGTYYADSMKGRFTISRDNSKNTLYLQMNSLRVEDTAVYYCAKDRLGPITLVRGGYYYGMDVWGQGTTVTVSS VL: DIQMTQSPSSLSASVGDRVTITCRASQSISDYLNWYQQKPGKAPKFLIYAASSLQSGVPSRFSGSGSGTDFTLTVSSLQPEDFATYYCQQSYSTPRTFGQGTRVEIKR | binds | ~1 nM |  |  | IC50 [2]: 1.2 nM
2 | 2D10 (hybridoma) (antibody, V domains shown, Kappa light chain; also called 02D10) VH: EVQLVESGGGLVQPGGSLRLSCAASGFTFSNYAMNWVRQAPGKGLEWVSTISGSGGATRYADSVKGRFTISRDNSRNTVYLQMNSLRVEDTAVFYCTKDRLIMATVRGPYYYGMDVWGQGTTVTVSS VL: DIQMTQSPSSLSASVGDRVTITCRASQSISSYLNWYQQKPGKAPNLLIYAASSLQSGVPSRFSGSGSETDFTLTISSLQPEDFATYYCQQSHSVSFTFGPGTKVDIK |  |  | binds |  | 
3 | 9H04 (hybridoma) (antibody, V domains shown, also called 09H04) VH: QVQLVESGGGLVKPGGSLRLSCAASRFTLSDYYMTWIRQAPGKGLEWVSYISSSGNTIYYADSVKGRFTISRDNAKNSLYLQMNSLRAEDTAVYYCARDLSGSYWDYYYGMDVWGQGTTVTVSS VL: AIQLTQSPSSLSTSVGDRVTIACRASQGINNALAWYQQKPGKAPKLLIYDASSLESGVPSRFSGSGSGTDFTLTISSLQPEDFATYYCQQFNSYPRTFGQGTKVEIK |  |  |  | 5.3 nM | 
4 | 19H01 (hybridoma) (antibody, V domains shown) VH: not shown VL: DIQMTQSPSSLSASVGDRVTITCRASQGISNYLAWYQQKPGKIPKLLIYAASTLQSGVPSRFSGSGSGTDFTLTISSLQPEDVATYYCQKYNSAPRTFGQGTKVEIK |  |  |  | 2.2 nM | 

Further lines, with some results ahead:

Row | binding result [1] | IC50 (read off the curve) [3] | binding result [5] | Kd [6] | Binder | further results
5 | binds | ~0.8 nM |  |  | 2D10 (human) (antibody, human IgG4 S228P, kappa, V domains shown, also called 02D10; 02D10 IgG4-PE) VH: EVQLVESGGGLVQPGGSLRLSCAASGFTFSNYAMNWVRQAPGKGLEWVSTISGSGGATRYADSVKGRFTISRDNSRNTVYLQMNSLRVEDTAVFYCTKDRLIMATVRGPYYYGMDVWGQGTTVTVSS VL: DIQMTQSPSSLSASVGDRVTITCRASQSISSYLNWYQQKPGKAPNLLIYAASSLQSGVPSRFSGSGSETDFTLTISSLQPEDFATYYCQQSHSVSFTFGPGTKVDIKR | IC50 [4]: 0.75 nM
6 |  |  | binds |  | 10A07 (hybridoma) (antibody, V domains shown, Kappa light chain; also called 10A7; mAb 10A7) VH: EVQLVESGGVLVQPGGSLRLSCAASGFTFSSYIMTWVRQAPGKGLEWVSGISGSGGGTYYADSMKGRFTISRDNSKNTLYLQMNSLRVEDTAVYYCAKDRLGPITLVRGGYYYGMDVWGQGTTVTVSS VL: DIQMTQSPSSLSASVGDRVTITCRASQSISDYLNWYQQKPGKAPKFLIYAASSLQSGVPSRFSGSGSGTDFTLTVSSLQPEDFATYYCQQSYSTPRTFGQGTRVEIK | 
